Test [1] addresses His-tagged biotinylated cynomolgus FcγRIII monomeric ECD (ACROBiosystems) (cynomolgus (Macaca fascicularis)) (UniProt Q8SPW2). The test is described as follows: BLI, FcγR on SA sensor, steady state.
The target of test [2] is His-tagged biotinylated cynomolgus FcγRIIa monomeric ECD (Sino Biological) (cynomolgus (Macaca fascicularis)). In words: BLI, FcγR on SA sensor, steady state. (BLI is a label-free optical method that tracks binding on a fibre tip over time.)
Test [3] concerns the target His-tagged biotinylated cynomolgus FcγRIIb monomeric ECD (Sino Biological) (cynomolgus (Macaca fascicularis)). The test is described as follows: BLI, FcγR on SA sensor, steady state.
Test [4] deals with His-tagged biotinylated human FcγRIIIa allotype 158V monomeric ECD (Sino Biological) (human) (UniProt P08637). In words: BLI, FcγR on SA sensor, steady state.
Chain of His-tagged biotinylated human FcγRIIIa allotype 158V monomeric ECD (Sino Biological) (human) (P08637 17-208 F176V): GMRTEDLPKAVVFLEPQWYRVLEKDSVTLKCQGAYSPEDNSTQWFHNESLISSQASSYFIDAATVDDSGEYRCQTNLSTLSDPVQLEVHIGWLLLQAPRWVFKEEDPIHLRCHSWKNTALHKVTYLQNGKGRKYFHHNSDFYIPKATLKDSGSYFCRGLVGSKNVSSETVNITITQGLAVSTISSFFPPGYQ
For test [5], the target named is His-tagged biotinylated murine FcγRIII monomeric ECD (Sino Biological) (murine) (UniProt P08508). In words: BLI, FcγR on SA sensor, steady state.
Chain of His-tagged biotinylated murine FcγRIII monomeric ECD (Sino Biological) (murine) (P08508 31-215): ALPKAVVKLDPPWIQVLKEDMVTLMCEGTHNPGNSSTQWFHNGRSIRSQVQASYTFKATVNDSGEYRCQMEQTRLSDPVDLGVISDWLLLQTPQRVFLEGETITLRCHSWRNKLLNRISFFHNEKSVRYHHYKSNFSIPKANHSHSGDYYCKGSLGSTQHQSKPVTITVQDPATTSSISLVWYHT
The target in test [6] is His-tagged biotinylated murine FcγRIIb monomeric ECD (Sino Biological) (murine) (UniProt P08101). The test is described as follows: BLI, FcγR on SA sensor, steady state.
Chain of His-tagged biotinylated murine FcγRIIb monomeric ECD (Sino Biological) (murine) (P08101 30-210): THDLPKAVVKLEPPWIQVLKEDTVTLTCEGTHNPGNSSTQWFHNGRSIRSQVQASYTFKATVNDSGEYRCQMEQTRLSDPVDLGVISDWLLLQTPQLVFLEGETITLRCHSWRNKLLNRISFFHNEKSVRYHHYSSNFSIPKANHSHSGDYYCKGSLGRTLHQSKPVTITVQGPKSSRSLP
In test [7] the target is His-tagged biotinylated murine FcγRIV monomeric ECD (Sino Biological) (murine). In words: BLI, FcγR on SA sensor, steady state.
Chain of His-tagged biotinylated murine FcγRIV monomeric ECD (Sino Biological) (murine) (A0A0B4 entry or part of it limits assumed): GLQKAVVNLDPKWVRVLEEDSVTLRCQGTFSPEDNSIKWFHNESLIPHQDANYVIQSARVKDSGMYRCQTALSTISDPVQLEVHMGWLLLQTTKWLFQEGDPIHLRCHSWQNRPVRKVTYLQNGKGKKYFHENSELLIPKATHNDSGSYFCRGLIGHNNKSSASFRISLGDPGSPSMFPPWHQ
Test [8] concerns the target His-tagged cynomolgus FcγRI monomeric ECD (R&D Systems) (cynomolgus (Macaca fascicularis)). In words: BLI, FcγR on Ni-NTA sensor, 1:1 global fit.
The target of test [9] is His-tagged human FcγRIa monomeric ECD (Sino Biological) (human) (UniProt P12314). In words: BLI, FcγR on Ni-NTA sensor, 1:1 global fit.
Chain of His-tagged human FcγRIa monomeric ECD (Sino Biological) (human) (P12314 16-292): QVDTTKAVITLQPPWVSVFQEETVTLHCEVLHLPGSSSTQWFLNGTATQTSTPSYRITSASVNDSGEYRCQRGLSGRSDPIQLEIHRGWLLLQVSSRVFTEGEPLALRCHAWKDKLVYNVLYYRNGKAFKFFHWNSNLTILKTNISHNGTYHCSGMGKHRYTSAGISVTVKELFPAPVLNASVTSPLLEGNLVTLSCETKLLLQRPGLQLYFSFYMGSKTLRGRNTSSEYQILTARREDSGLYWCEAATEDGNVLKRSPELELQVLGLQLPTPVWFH
For test [10], the target named is His-tagged murine FcγRI monomeric ECD (Sino Biological) (murine) (UniProt P26151). In words: BLI, FcγR on Ni-NTA sensor, 1:1 global fit.
Chain of His-tagged murine FcγRI monomeric ECD (Sino Biological) (murine) (P26151 25-297): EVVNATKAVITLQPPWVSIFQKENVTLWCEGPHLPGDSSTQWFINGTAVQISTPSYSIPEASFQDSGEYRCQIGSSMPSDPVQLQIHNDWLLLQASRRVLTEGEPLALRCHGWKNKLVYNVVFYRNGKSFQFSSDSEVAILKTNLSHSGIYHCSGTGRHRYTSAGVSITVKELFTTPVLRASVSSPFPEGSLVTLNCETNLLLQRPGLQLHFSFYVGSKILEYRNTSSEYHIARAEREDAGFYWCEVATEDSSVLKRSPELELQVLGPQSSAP
Test [11] shares this target. The test is described as follows: BLI.
Test [12] shares this target. In words: BLI, 1:1 global fit; analysis not optimal, <4 fits.
For test [13], the target named is FcγRIIIa on natural killer cells in human PBMC (human) (UniProt P08637). In words: cell-based or functional assay.
Chain of FcγRIIIa on natural killer cells in human PBMC (human) (P08637 17-254): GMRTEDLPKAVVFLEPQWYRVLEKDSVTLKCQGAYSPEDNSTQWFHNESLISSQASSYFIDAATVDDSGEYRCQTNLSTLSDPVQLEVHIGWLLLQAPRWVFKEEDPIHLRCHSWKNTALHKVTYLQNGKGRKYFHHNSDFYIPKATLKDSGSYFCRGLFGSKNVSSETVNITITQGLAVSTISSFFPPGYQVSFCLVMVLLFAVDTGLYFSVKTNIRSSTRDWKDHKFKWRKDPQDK
Test [14] has as its target His-tagged biotinylated human FcγRIIa allotype 131H monomeric ECD (Sino Biological) (human) (UniProt P12318). In words: BLI, FcγR on SA sensor, steady state.
In test [15] the target is His-tagged biotinylated human FcγRIIb monomeric ECD (Sino Biological) (human) (UniProt P31994). In words: BLI, FcγR on SA sensor, steady state.
Chain of His-tagged biotinylated human FcγRIIb monomeric ECD (Sino Biological) (human) (P31994 43-217): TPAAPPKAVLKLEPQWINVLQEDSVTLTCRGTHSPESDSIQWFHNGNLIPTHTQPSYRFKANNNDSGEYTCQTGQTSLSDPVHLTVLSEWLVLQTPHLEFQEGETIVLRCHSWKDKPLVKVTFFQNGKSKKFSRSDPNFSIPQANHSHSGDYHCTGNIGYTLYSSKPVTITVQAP
For test [16], the target named is His-tagged biotinylated murine FcγRIV monomeric ECD (Sino Biological) (murine). The test is described as follows: BLI.
For test [17], the target named is His-tagged human FcγRIa monomeric ECD (Sino Biological) (human) (UniProt P12314). The test is described as follows: BLI, 1:1 global fit; analysis not optimal, <4 fits.
The target of test [18] is His-tagged biotinylated human FcγRIIIa allotype 158V monomeric ECD (Sino Biological) (human) (UniProt P08637). The test is described as follows: BLI, steady state; responses did not reach a plateau.
In test [19] the target is His-tagged biotinylated murine FcγRIV monomeric ECD (Sino Biological) (murine). The test is described as above.
In test [20] the target is His-tagged biotinylated human FcγRIIIa allotype 158V monomeric ECD (Sino Biological) (human) (UniProt P08637). Described as above. The source holds these as a separate data set.

Here are results for six substances from patent US20240150484A1.

Chain of His-tagged biotinylated human FcγRIIa allotype 131H monomeric ECD (Sino Biological) (human) (P12318 34-217): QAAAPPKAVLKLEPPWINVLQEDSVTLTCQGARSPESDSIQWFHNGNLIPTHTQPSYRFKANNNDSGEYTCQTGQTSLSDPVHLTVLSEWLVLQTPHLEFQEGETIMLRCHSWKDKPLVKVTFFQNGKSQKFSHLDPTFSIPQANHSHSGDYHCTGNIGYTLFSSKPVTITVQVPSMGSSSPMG
Chain of His-tagged biotinylated cynomolgus FcγRIII monomeric ECD (ACROBiosystems) (cynomolgus (Macaca fascicularis)) (Q8SPW2 17-208): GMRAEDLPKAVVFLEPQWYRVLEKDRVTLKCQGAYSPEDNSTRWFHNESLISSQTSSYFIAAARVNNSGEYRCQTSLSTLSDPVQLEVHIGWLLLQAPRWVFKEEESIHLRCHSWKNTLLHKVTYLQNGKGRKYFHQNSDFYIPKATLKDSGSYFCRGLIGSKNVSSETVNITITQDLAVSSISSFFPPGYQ

On to “wild-type anti-human CD20 IgG1 antibody (IgG1-CD20)”, for which the Kd in test [1] was found to be 415 nM; in test [2], 4250 nM; in [3], 3900 nM; in test [4], 565 nM; in test [5], 7450 nM; in test [6], 2850 nM. In addition, the Kd in test [7] came out at 1040 nM; in test [8], 0.626 nM; in [9], 1.84 nM; in test [10], 124 nM.
“murine anti-human CD20 IgG2a-L234F-L235E-G236R (antibody)”: the fold reduction of binding affinity vs wild-type IgG2a in test [11] came out at 100 fold. In [12], this substance displayed a Kd of 430 nM, a koff of 0.00227 s⁻¹ and an association rate constant (kon) of 5300 M⁻¹ s⁻¹.
As to “anti-human CD20 IgG1-L234F-L235E-G236R-K409R (antibody)”, the reduction of ADCC of Raji cells in [13] stood at 69%.
In test [11], “murine anti-human CD20 IgG2a-L234A-L235A-P329G (antibody)” came in with a fold reduction of binding affinity vs wild-type IgG2a of 100 fold. In test [12], the Kd was 364 nM, the koff was determined as 0.002 s⁻¹ and the kon was found to be 5500 M⁻¹ s⁻¹.
As for “wild-type murine anti-human CD20 IgG2a antibody”, the Kd amounted to 1950 nM in test [4]; 1850 nM in [14]; 17000 nM in test [15]; 6900 nM in test [5]; 6400 nM in [6]; 145 nM in test [7]. In addition, the Kd is 1.27 nM in [9] and 3.82 nM in test [10]. For the same substance, the koff in [9] was determined as 0.00039 s⁻¹; in test [10] it was 0.000619 s⁻¹. Moreover, the kon in test [9] was 311000 M⁻¹ s⁻¹; in [10], 162000 M⁻¹ s⁻¹.
Take “murine anti-human CD20 IgG2a-L234A-L235A (antibody)”: the fold reduction vs wt IgG2a in [16] worked out at 100 fold. Also, the Kd turned out to be 238 nM in test [10]; 3610 nM in test [17]; 11700 nM in test [18]; 13800 nM in [19]; 13800 nM in test [20]. Further, the koff in test [10] was found to be 0.00231 s⁻¹; in test [17], 0.0163 s⁻¹. Also, the kon was determined as 9730 M⁻¹ s⁻¹ in [10] and 4530 M⁻¹ s⁻¹ in [17].

One may read the Kd as the concentration at which binding is half-saturated. The low end stands for a tighter complex, the high end for a looser complex. By koff is commonly meant a measure of how fast the partners let go of each other. In general, kon refers to the second-order rate constant of association.
